Data set [1] addresses RNase E (1-850), catalytically inactive, truncated degradosome scaffold;RhlB;Enolase D303N;D346N (Escherichia coli;Escherichia coli;Escherichia coli) (UniProt P21513+P0A8J8+P0A6P9). Put plainly: SEC-SAXS. Particulars: SEC-SAXS buffer not given in the material. EMSA (30S ribosomal subunit, not listed because it is a ribonucleoprotein): 40 mM Tris-HCl pH 7.5, 100 mM NaCl ….
Data set [2] addresses RNase E (1-850) (E. coli) (UniProt P21513). Put plainly: AUC; sedimentation velocity, truncated degradosome at 4 mg/ml in buffer S6 (50 mM Tris-HCl pH 7.5, 400 mM NaCl, 100 mM KCl, 5 mM MgCl2, 1 mM TCEP, 0.02% beta-DDM, 10% glycerol), 4 C.

This is an account of results in PMC7613265.

As to “GAAGCUGUUUUGGCGGAUGAGAGAAGAUUUUCAGCCUGAUACAGAUUAAAUCAGAACGCAGAAGCGGUCUGAUAAAACAGAAUUUGCCUGGCGGCAGUAGCGCGGUGGUCCCACCUGACCCCAUGCCGAACUCAGAAGUGAAACGCCGUAGCGCCGAUGGUAGUGUGGGGUCUCCCCAUGCGAGAGUAGGGAACUGCCAGGCAUCAAAUAAAACGAAAGGCUCAGUCGAAAGACUGGGCCUUUCG [9S RNA (5S rRNA precursor)]”, the binding result in data set [1] is “binds”.

A word on the stoichiometry N: it is a count of units in the complex or per binding partner. Substance “RNase E (1-850) (from UniProt P21513 1-850) (domain or fragment)” registered a stoichiometry N in data set [2] of 4.
